Test system: K4 kissing-loop RNA reporter
Assay: apparent KD of K4 kissing-loop reporter; higher = weaker reporter binding
Conditions: Eterna round: R107
Protocol: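 RNA-MaP round R107: designed RNA switches with theophylline, tryptophan, arginine or FMN aptamers are transcribed on-chip within common flanks. They are titrated with a labelled K4 kissing-loop RNA reporter in RNA-MaP buffer (100 mM Tris pH 7.5, 80 mM KCl, 4 mM MgCl2), without ligand or with the indicated ligand. Median apparent KD per design.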

[1] = input ligand: theophylline 20 uM
[2] = input ligand: tryptophan 2.4 mM
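Note: bound reporter read as fluorescence of individual clusters on recovered sequencing chips by microscopy, with normalized cluster intensities fitted with a binding model.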

| Sequence | apparent KD of K4 kissing-loop reporter (input ligand: FMN 200 uM) [nM] | apparent KD of K4 kissing-loop reporter (input ligand: arginine 13.2 mM) [nM] | apparent KD of K4 kissing-loop reporter (input ligand: none) [nM] | apparent KD of K4 kissing-loop reporter [1] [nM] | apparent KD of K4 kissing-loop reporter [2] [nM] |
| --- | --- | --- | --- | --- | --- |
| GCAGGAUAGCGCGGUGCAGUGAUGUUGCACCGAGGACCGGUACGGCCGCCACUCGCUUAGAUAUCGUGUGAUGGGUAUGUCUAGA [theeternabot_exclusion_KL_Trp_A_8] | 116 | 110 | 123 | 94 | 119 |
| AGUGUGCAAAAGCACACUCAGCACAAGGACAAGGAUAUCUACUAAUAGAGAAGGUGUCCUUUCCUUAGUGAUGUUAAGGAGCUGA [Omei KL FMN A SS D v1] | 238 | 526 | 700 | 624 | 693 |
| AGACUACUGAUAGGAUAUAACAUCCUAGUCGUAUACCGAAAGGUAUACGAUUUCCUUCUAGUGAUGUUAGAAGGGUCGGUAGUCA [Omei KL FMN B Exc B v11] | 106 | 82.4 | 89.1 | 81.1 | 89.1 |
| GAUCUGAACGAAAGUUCGGAUCAGUCCGAUACCAGUAUGGAUUCAUACCCUUGGCAGCGGAAAUCUGCUAUGGAGUGAUGUUCCA [Theophylline A K4 14] | 532 | 328 | 379 | 418 | 391 |
| GGAUAGGAUAGAGGAUAUGGUUUAUGCAGAAAUAACUUAUUGUGUAAAUCCAUAGGGAGUGAUGUUCCAGAAGGCUGUCCUAUCG [MatMod 15 - Jieux - Exclusion - FMN B] | 316 | 187 | 209 | 241 | 180 |
| AACCACUCGUUACAUCACUAUCGAGUGGAACGAGGACCGGUACGGCCGCCACUCGAUAACUUGCAGUGAUGUUGCAAGUAAGAAU [(T)''-(K)'-(T)'-(T1)-(T2)-(K1)-(K2)_Design9] | 542 | 343 | 472 | 381 | 289 |
| AAAGUUGCAAGUGAUACCAGACGAGUGAAGGGAAGUAAUUAAUUAGGAGUGAUGUUCCGCGUCCCUUGGCAGCACUUUGUAAUUU [Exclusion Theophylline B GF 25] | 155 | 165 | 152 | 184 | 115 |
| UAUUUAGUGACGGCCGCCACUAUGGUGAUUUAUUUGUUUGAGUGAUGUUUUGAUGUUUGAUUUUGUAGGACCGGGUUAUGUGUUG [yyycmullin] | 891 | 688 | 818 | 752 | 595 |
| UGAUCACAGUGAUGUUGUGGCAAAAGUGAUACCAGCCGUGUACGAGGCCCUUGGCAGCACCAGGGCUGUACGUCGUUAGAUCCGG [theeternabot_exclusion_KL_Theo_A_33] | 211 | 156 | 194 | 177 | 169 |
| GCCGUAGAUUGAAGGAGCGUGGAACUAUGGCUUGAACAGUGAUGUUGUUUAUCUAGGUAGCCGCAGGUAGGUCGCAAUCUACGGC | 263 | 250 | 270 | 239 | 229 |
| AGGAUGUAGUGAUGUUAUAUAAAAGGUAAACGAGGACCGGUACGGCCGCCACUCGAAGCGGCUGCUAAGAGGGAAAGAAGAGGAA [ExTryptoA.E] | 496 | 464 | 570 | 684 | 371 |
| UGUCGAGUGAUGUUCGAUGUGGUGCAUUCAGAGGAUAUAGGGUGGGCUAGAAGGCUGAAAAGUGCUUCGAGUGAUGUUCGAAGAU [Exclusion FMN A GF8] | 70.6 | 117 | 144 | 132 | 110 |
| UGACUGGACUGAAGGAGCGCGAAAACUCCUAGUGAUGUUAGGAAAACGAGACAAAGUCUCGCGCAGGUAGGUCGCAGUCUAGUCU [ArgBS 20 #SwitchBubble #StaticStem] | 131 | 102 | 121 | 129 | 113 |
| AAGACUUGCAUCGAUACCAGCCCAGUGAUGUUGGGCUGCUCUCCAUGGGUGCCAGACACGGGCCCUUGGCAGCGAGGUAAGGCCC [Soveri] | 129 | 110 | 113 | 109 | 106 |
| GGAUAGGACAGAGGAUAUGGACAGUCUACAAAGUAGGCUGAAAAUCCUUGAAUGGAAGUGAUGUUUCCAGAAGGCUGUCCUAUCG [FmnBX 20 - #SwitchBubble #StaticStem #Palindromic] | 558 | 145 | 165 | 164 | 150 |
| AGUACGGACGCGGCCGCCACUCAGAAGAAGACGGUAGUGAUGUUACUGAUGGUGAGAACAAUAAAGAGGACCGGGUGUCGUGCAA [#06 K4 Tryptophan B Same State] | 324 | 464 | 523 | 370 | 304 |
| UAGUCCUAGUGAUCCUUAUCAAGUGGUGGGCGAGGACCGGUACGGCCGCCACUCGACUAUGCAGUGAUGUUGCAAUCCGGACAAU [Exclusion - Tryptophan A (Freestyle 13)] | 191 | 211 | 194 | 243 | 179 |
| UACAGGGAUAGUGAUGUUAUCCCAUGUGAUACCAGUGUCAUCCAACACCCUUGGCAGCAUACGGGCAGUGAUGUUGUUCUUGGUA [#17 K4 Theophylline A Exclusion] | 91.7 | 75.4 | 91.6 | 77.5 | 84.3 |
| CCGCUACCCUCAGGAUAUUAAGUAUUAGUGAUGUUAGUAAACCGAUGGCGAAAGCCAUCGGUAUGUUGAGAAGGGAGGGUAGCGG [whbob_SS_FMNB__2th198] | 356 | 946 | 1170 | 847 | 923 |
| CGCAGUGAUGUUGCGAAUAUAAUAACGGAAGGAGCGCGUGAAAACGCAGGUAGGUCGCCGUUUGGUAUGAUGGAAACAUCGUACC [Arginine A K4 11] | 135 | 138 | 132 | 106 | 123 |
| UGGAGUUGACGAAAAGUCAACUCCUGAGAAGGAGCGGACGAAAGUCCAGGUAGGUCGCUCACUACCAGUGAUGUUGGUACUAAAA | 160 | 157 | 141 | 66.6 | 203 |

| Sequence | apparent KD of K4 kissing-loop reporter (input ligand: FMN 200 uM) [nM] | apparent KD of K4 kissing-loop reporter (input ligand: arginine 13.2 mM) [nM] | apparent KD of K4 kissing-loop reporter (input ligand: none) [nM] | apparent KD of K4 kissing-loop reporter [1] [nM] | apparent KD of K4 kissing-loop reporter [2] [nM] |
| --- | --- | --- | --- | --- | --- |
| UACCUGCUGUCAGGAUAUGAGUGCAGUGAUGUUGCACUCAACGUAACCAUCUUGAAAUGCAAACACUCAGAAGGGACGCGCGAAG [Onaninso] | 151 | 99.8 | 122 | 91.8 | 102 |
| GGUAGCAUGGCGGCCGCCACUCUUCAUUAGUGAUGUUAAUGCCGAGUGCGCUAACUCCAACUGGAGAGGACCGGGCCAUGCUACC | 182 | 122 | 288 | 440 | 76 |
| GGCCAAAGAGAGUGAUGUUCUCAAUAUGAAGGAGCGCCCGAAAGGGCAGGUAGGUCGCAUAACGGCCACCUACGAAAAGUAGGAA [#SwitchBubble 4 #K4Early] | 91.3 | 96.6 | 94.5 | 109 | 96.5 |
| GGAUAGGAUAGAGGAUAUGGACUAGGCAAGAAUAACUUGUCUAGUAAAUCCAUGAGGAGUGAUGUUCCAGAAGGCUGUCCUAUCG [MatMod 3 - Jieux - Exclusion - FMN B] | 514 | 200 | 226 | 224 | 185 |
| AAGUCAUAGGCAGGAUAUGCUUAGUAAUAAGGCCAUAUAUACGUAUAGAGUGAUGUUUUGUACCAGGCAGAAGGGCUACAUCAGU [FMN B Excl V8 (+2A)] | 541 | 276 | 373 | 532 | 544 |
| UGAUUUAACUGAAGGAGCGGCAAGAGAGAAGGAAAUAUAGUGAUGUUAUAUAAGAGAGAGAGCCAGGUAGGUCGCAGAGGGAGGA [ExArgB.E] | 126 | 126 | 173 | 178 | 137 |
| AAUACUAUCAGAAGGAGCGUGGAAUAUUCAUCUGUAUCUAAUACGAGUGAUGUUCGUAAUUCACAGGUAGGUCGCUGAUCAAUAA [whbob_Ex_Arginine_B_2th156] | 246 | 249 | 267 | 269 | 213 |
| AUUGCACCUGCGGCCGCCACUCACUCCGGGCUGCUGGCCAGUGAUGUUGGUACGGCUGCCGGUUAGAGGACCGGGCAGGAGCUAA [Esage] | 106 | 113 | 107 | 106 | 91.3 |
| GUUAUGGACCUGGAUACCAGCUGGUACUAAGUGGGAGAAUGAAAGUGAUGUUUUCGUGCUAGCCCUUGGCAGCCAGCAACCCGCA [XTheo-B7] | 104 | 83.6 | 89.4 | 79.4 | 80.1 |
| AGAGUUAUGCGAGGAUAUGCAGUUAGUACUCAAAGAGUACUAACGCAGAGUGAUGUUCUGUGAAAAGCAGAAGGUGCAUAACUCA [Omei KL FMN B SS B v6] | 155 | 650 | 693 | 597 | 669 |
| CCCUCACGAGUGAUGUUCGUAGGGUACAGUCAGGAUAUCAUGCGGUUGAGAAGGGACAGAGAAGGCGGCGACGGGUUGCUUAUCU [Atenus] | 206 | 243 | 277 | 200 | 218 |
| UGUUUUUACUGAAGGAGCGGCAAUUGAUACGUAGAUAUAGUGAUGUUAUAUAAGAUAGAGAGCCAGGUAGGUCGCAGAGUGUUUC [ExArgB.aA] | 250 | 195 | 194 | 194 | 172 |
| GGAUCCACCAGUGAUGUUGGAGAAAACUCCGAGGAUAUGACGAAAGUCAGAAGGUGGUAGACUGGACAAAGUCCGGUCGGAUCCA [FmnA 24 #SwitchBubble #K4Early] | 790 | 83.3 | 288 | 162 | 101 |
| AUUAAUUUCAGAGGAUAUGCUUUAUUAUUAUUUUUAAAUAAUAUAAGCAGUGAUGUUGCUUUUUAUGCAGAAGGCUGAUUUAUAA [JR_SSFMNB_Sub016] | 137 | 397 | 383 | 384 | 360 |
| AGGCACGAGCAAGGAUAUUGAGUAGAGUGAUGUUCUGCCUAAGUUGGCUCGAAAGAGCCUUCUUAGCGAGAAGGUGCUCGUGCCU [#2 Same State - FMN A Attempt #26 (HarryS)] | 297 | 534 | 666 | 812 | 763 |
| GCUGAGGAGUGAUGUUCCAAGUGAUGUUAACGAGGACCGGUACGGCCGCCACUCGAUACGGCCGGACCGUAAGAUAAACUACAGC [Same State - Tryptophan A (Freestyle 7)] | 316 | 281 | 288 | 409 | 315 |
| UGAUAGGACAGAAGGAGCGGGAGUGAUGUUCCCAAUAAAAGGUCUAGCAAAGCUAGACCCUCCCAGGUAGGUCGCUGUCCUAUCU [ArgBX 2 #Palindromic #SwitchBubble #StaticStem] | 234 | 265 | 268 | 245 | 219 |
| UAAUUUAUGUCUUUAAUUUUAUUAUCAGAUACCAGUGAUUUAUGACACCCUUGGCAGCUGUAUUGAGUGAUGUUCUUAUAUUAAA [JR_Nu_ExcTheophyA_Sub023] | 111 | 111 | 118 | 190 | 72.5 |
| CCGCCGGUCGGAAGGAGCGCACGCCAGAGUGAUGUUCUGGCGCAGGCAUUUAGUGCCCGCGUGCAGGUAGGUCGCCGAUUCUGGC [Arlaaa] | 341 | 310 | 423 | 234 | 270 |
| UUAAAAUAUAUAAAUAAUAAGGGAAUUGAUACCAGACAGAAUUCUGUCCCUUGGCAGCAGUGAUGUUGUUGCAAUUUAAAUAAUU [AK1 Exc Theophylline A] | 104 | 148 | 112 | 136 | 85.7 |
| AAAAUAGAUCAGUGAUGUUGGUGUCUGGAUACCAGCGAUAAUAGUCGCCCUUGGCAGCCAUGGACGUACAAAAUAAGUACGUCCU [MatMod 20 - Jieux - Same State - Theophylline A] | 487 | 239 | 369 | 285 | 347 |
